In the assay the target is CD16a on NK cells of cynomolgus monkey peripheral blood (cynomolgus monkey (endogenous on NK cells of peripheral blood)) (UniProt Q8SPW2). In words: flow cytometry on cells; cynomolgus monkeys given HpmAb1/D1632 (0.5-20 mg/kg s.c., day 0) or IVIG (1 g/kg i.v., days 0 and 1) and anti-platelet antibody on day 1; blood NK cells (CD45+CD14-CD159a+) stained with Fc-competing anti-CD16 3G8 (unoccupied CD16a) and non-competing DJ130c (all CD16a); free ratio and receptor occupancy (RO) against baseline (day 0). On the technique in general: A flow cytometer gives signals particle by particle.
UniProt Q8SPW2, sequence (Q8SPW2 17-254): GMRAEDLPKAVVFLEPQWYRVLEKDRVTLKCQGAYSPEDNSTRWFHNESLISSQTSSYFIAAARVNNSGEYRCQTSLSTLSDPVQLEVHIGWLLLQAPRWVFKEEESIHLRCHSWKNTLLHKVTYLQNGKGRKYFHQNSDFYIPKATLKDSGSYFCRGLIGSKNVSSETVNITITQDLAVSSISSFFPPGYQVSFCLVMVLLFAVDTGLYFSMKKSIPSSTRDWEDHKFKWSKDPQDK

As to “Intravenous immunoglobulin (IVIG) (antibody)”, the free ratio (unoccupied CD16a on NK cells, % of baseline) on day 1 is 40.3%.
